Data from paper PMC8294330, “A cooperative PNPase-Hfq-RNA carrier complex facilitates bacterial riboregulation” (Molecular Cell, 2021).

Biological target: the molecule itself
Assay: cryo-EM structure; apo PNPase and PNPase with 3'ETSleuZ RNA; 8-12 uM in 20 mM Tris-HCl pH 8, 2.5 mM MgCl2, 150 mM KCl, 1 mM TCEP, 8 mM CHAPSO added before blotting

B1: Escherichia coli polynucleotide phosphorylase (PNPase), wild type (enzyme, UniProt P05055 1-711, looked up)
chain: MLNPIVRKFQYGQHTVTLETGMMARQATAAVMVSMDDTAVFVTVVGQKKAKPGQDFFPLTVNYQERTYAAGRIPGSFFRREGRPSEGETLIARLIDRPIRPLFPEGFVNEVQVIATVVSVNPQVNPDIVAMIGASAALSLSGIPFNGPIGAARVGYINDQYVLNPTQDELKESKLDLVVAGTEAAVLMVESEAQLLSEDQMLGAVVFGHEQQQVVIQNINELVKEAGKPRWDWQPEPVNEALNARVAALAEARLSDAYRITDKQERYAQVDVIKSETIATLLAEDETLDENELGEILHAIEKNVVRSRVLAGEPRIDGREKDMIRGLDVRTGVLPRTHGSALFTRGETQALVTATLGTARDAQVLDELMGERTDTFLFHYNFPPYSVGETGMVGSPKRREIGHGRLAKRGVLAVMPDMDKFPYTVRVVSEITESNGSSSMASVCGASLALMDAGVPIKAAVAGIAMGLVKEGDNYVVLSDILGDEDHLGDMDFKVAGSRDGISALQMDIKIEGITKEIMQVALNQAKGARLHILGVMEQAINAPRGDISEFAPRIHTIKINPDKIKDVIGKGGSVIRALTEETGTTIEIEDDGTVKIAATDGEKAKHAIRRIEEITAEIEVGRVYTGKVTRIVDFGAFVAIGGGKEGLVHISQIADKRVEKVTDYLQMGQEVPVKVLEVDRQGRIRLSIKEATEQSQPAAAPEAPAAEQGE
notes: polynucleotide phosphorylase (PNPase), Escherichia coli, full-length enzyme with RNase PH core, KH and S1 domains; Preparation follows Bandyra et al., 2016; no tag is named for the purified protein; also called wild-type PNPase; PNPase WT
Q: Which “stoichiometry N” value does the source give for B1 here?
A: 3
